Measured values published in patent US7981863B2, “Treatment of Parkinson's disease with PDGF” (Neuronova AB, priority 2001, dated 2011).

Columns and labels:
Healthy Rats = assay: ICV infusion in healthy rats, BrdU / NeuN labelling; assay type: in vivo, rat
Experimental: Male rats (12 hours light/dark regime; feeding and drinking ad libitum; 5 animals in standard cage) were infused (Alzet minipumps) in the left lateral ventricle with human recombinant PDGF-BB for 7 days at a daily dose of 36 ng/day (8 animals/group). Human recombinant BDNF (brain derived neurotrophic factor) was used as a positive control (Pencea V et al., J. Neurosci Sep. 1 (2001), 21(17):6706-17). Bromodeoxyuridine (BrdU) was also included in the infusion vehicle (artificial cerebrospinal fluid) to enable measurement of proliferation by quantitation of BrdU incorporation in the DNA. Animals were sacrificed at 7 (proliferation) or 28 days (neurogenesis) after start of treatment and brains were dissected and prepared for sectioning and immunohistochemistry (Pencea V et al., J. Neurosci Sep. 1 (2001), 21(17):6706-17).
Proliferation was measured by BrdU incorporation and diaminobenzidine (DAB) staining of HRP conjugated secondary antibodies (FIG. 7). Cells were counted in a phase contrast microscope. Neural phenotype was assessed by staining for neuronal marker NeuN by immunocytochemistry using a fluorescence readout. The secondary antibodies were labeled with FITC or Alexa Fluor568. In double staining analyses designed to measure neurogenesis, BrdU and NeuN were quantitated by fluorescence (above) and counting of cells was done in a confocal microscope. For further experimental details, see Pencea V et al., J. Neurosci Sep. 1 (2001), 21(17):6706-17. A number of brain regions were analysed.

6-OHDA Lesioned Rats = assay: i.c.v. infusion in 6-OHDA lesioned rats, BrdU / NeuN labelling; assay type: in vivo, rat
Experimental: Animal handling and surgical procedures were carried out according to the ethical and regulatory permits set forth by Jordbruksverket and Lund University. Adult female Sprague-Dawley rats (B&K Universal AB) rats weighing 220-250 g, were housed in pairs with a 12 h light-dark cycle with free access to food and water. To lesion the substantia nigra, rats were fixed into a stereotaxic frame and 6-OHDA ([…] in 0.02% ascorbate saline, Sigma) was injected at a rate of 1 μl/min in 2 deposits of 2 and 2.5 μl into the right ascending mesostriatal forebrain bundle at the following coordinates: 4.4 mm caudal to bregma, 1.2 mm lateral to midline, 7.8 mm below dura; 4.0 mm caudal, 0.8 mm lateral, 8.0 mm below dura, respectively (Paxinos and Watson, 1998). Three weeks after 6-OHDA injections, the completeness of the lesion was assessed with the amphetamine-induced rotation test. D-methylamphetamine (2.5 mg, i.p.) was injected 5 min prior to placing the rat in an automated rotormeter bowl that measured the number of rotations over 90 min.
Before implantation, an Alzet Model 2002 osmotic minipump (200 μl; flow rate: 0.5 μl/h, 12 μl/day) was prefilled with 200 μl of compound solution (see below) and placed in a NaCl (0.9%) solution warmed in water bath (37° C.) 36 hrs before implantation. Rats were anesthetized with halothane in a mixture of nitrous oxide/oxygen (70:30) and maintained with 2-3% halothane. For implantation, rats were placed in a stereotaxic frame and the cannula of the Alzet Brain Infusion kit II was placed into the right lateral ventricle (coordinates: AP=−0.3 mm posterior bregma, L=1.5 mm lateral to satura sagittalis, 4.5 mm the dura; Paxinos and Watson, 1998), and secured to the skull with screws and dental cement. The minipump was then placed subcutaneously in the mid-scapular region. The scalp was treated with lidocaine gel before suturing. Twelve days after insertion, the rats were briefly anaesthetized with halothane in order to remove the pump. Removed pumps had the remaining solution volume and weight recorded.
The effects of infused PDGF-BB and BDNF following 6-OHDA lesions were investigated at 2 different time points: at 12 days or 5 weeks after minipump insertion. Rats receiving human PDGF-BB (order # 220-BB-050; 50 μg, R&D Systems) each had 36 ng/d of PDGF dissolved in 0.1 M PBS (3 μg/ml). Rats receiving human recombinant BDNF (order # 248-BD-025; 25 μg, R&D Systems) each had 12 ng/d of BDNF dissolved in 0.1 M PBS (1 μg/ml). BrdU was co-administered with the compound solution in the minipumps by dissolving it into the 0.1 M PBS medium. Control rats received only BrdU/PBS infusions.
Brain tissue was obtained by anesthetizing the rat and transcardially perfusing with 0.9% saline followed by 4% paraformaldehyde (PFA). Brains were stored PFA for 2 hours, then transferred to 20% sucrose PBS and sectioned coronally on a sledge microtome at 30 μm thickness. Free-floating sections were stored in Walter's antifreeze solution at 4° C. until staining.
Following blocking, incubation of monoclonal rat anti-BrdU antibody (Harlan Sera Lab, UK) in 2% blocking solution occurred at a dilution of 1:100 at 4° C. for 36 hrs. The sections were then incubated with biotin-horse-[…] antibody (1:200) (Vector, CA) in 2% blocking solution for 2 hr and visualized with DAB-NiCl Vectastain Elite kit. The procedure for doubling labeling of BrdU with NeuN or TH was similar, except that a monoclonal rat anti-BrdU antibody (1:100; Sigma, Sweden) was incubated either with a monoclonal mouse anti-NeuN antibody (1:100; Chemicon, USA) or with a monoclonal anti-TH antibody (1:1000; Pelfreeze) in the appropriate 2% blocking solution in the dark for 36 to 48 hrs. For immunofluorescent visualization, sections were incubation in secondary antibodies: Cy3-conjugated donkey anti-rat (1:200; Jackson ImmunoResearch, PA) for BrdU; a biotinylated horse anti-mouse antibody (1:200; BA2001, Vector, CA) for NeuN; and a FITC-conjugated goat anti-rat (1:200;) for TH. […]

B1: PDGF-BB: human recombinant PDGF-BB, platelet derived growth factor B-chain homodimer (protein)
chain: SLGSLTIAEPAMIAECKTRTEVFEISRRLIDRTNANFLVWPPCVEVQRCSGCCNNRNVQCRPTQVQLRPVQVRKIEIVRKKPIFKKATVTLEDHLACKCETVAAARPVT
Cell count (BrdU, proliferation) along the lateral ventricle wall (Healthy Rats; 7-day group, ICV infusion 7 days, 36 ng/day, mean of two sections, mean +/- sem): 216 +/−25
number of proliferating cells in the subventricular zone (Healthy Rats; 28-day group): no such statistically significant effect
neurogenesis in the striatum (Healthy Rats; 28-day group, in comparison to vehicle treated animals): significantly increase neurogenesis
BrdU positive cells in the dentate gyrus, the CA1 and the alveus (Healthy Rats; 28-day group, in comparison to vehicle-treated animals): no significant effect
BrdU positive cells in the striatum (Healthy Rats; 28-day group, cells counted in 300 × 300 μm squares): 40 ± 6.8 (p < 0.01 to vehicle, ANOVA)
absolute number of BrdU/NeuN double labelled cells in the striatum (6-OHDA Lesioned Rats; 5 weeks, FIG. 15): significantly more neurons
numbers of BrdU labelled cells in the denervated striatum (6-OHDA Lesioned Rats; 12 days after infusion, compared to PBS infusion, PDGF 36 ng/d, BDNF 12 ng/d): significantly elevated
numbers of BrdU labelled cells in the lesioned substantia nigra (6-OHDA Lesioned Rats; 12 days after infusion, compared to PBS treatment): significantly elevated
BrdU cells in the striatum co-labelled with NeuN (proportion of newly generated neurons) (6-OHDA Lesioned Rats; Week 5, no statistically significant differences): 20.9%
